From paper PMC8910471, “The Finely Coordinated Action of SSB and NurA/HerA Complex Strictly Regulates the DNA End Resection Process in Saccharolobus solfataricus”

Columns and labels:
[1] = target: T1, SSB (Saccharolobus solfataricus, UniProt Q97W73 1-148); experiment: EMSA; with NurA/HerA: SSB binding strongly stimulated; EMSA: 5 pmol fluorescent DNA in 10 ul, 20 mM HEPES/NaOH pH 7.5, 35 mM beta-mercaptoethanol, 500 mM NaCl, 50 mM MgCl2 (so in the source), 10 min room temperature, 5% PAGE in 0.5x TBE; settings: protein: recombinant
T1 sequence: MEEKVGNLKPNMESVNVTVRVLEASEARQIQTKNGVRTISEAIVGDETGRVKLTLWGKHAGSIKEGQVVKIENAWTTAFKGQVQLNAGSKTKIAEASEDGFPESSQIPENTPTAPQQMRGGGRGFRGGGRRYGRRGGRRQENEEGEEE

[2] = target: T2, HerA (Saccharolobus solfataricus, UniProt Q97WG8 1-500); experiment: EMSA; in NurA/HerA with SSB: HerA binding not reduced on fork; EMSA: 5 pmol fluorescent DNA in 10 ul, 20 mM HEPES/NaOH pH 7.5, 35 mM beta-mercaptoethanol, 500 mM NaCl, 50 mM MgCl2 (so in the source), 10 min room temperature, 5% PAGE in 0.5x TBE; settings: protein: recombinant; chain copies: 6; fork 1:2; 50 bp duplex, unpaired 5' T20 of strand 1 and 3' 20 nt of strand 2
T2 sequence: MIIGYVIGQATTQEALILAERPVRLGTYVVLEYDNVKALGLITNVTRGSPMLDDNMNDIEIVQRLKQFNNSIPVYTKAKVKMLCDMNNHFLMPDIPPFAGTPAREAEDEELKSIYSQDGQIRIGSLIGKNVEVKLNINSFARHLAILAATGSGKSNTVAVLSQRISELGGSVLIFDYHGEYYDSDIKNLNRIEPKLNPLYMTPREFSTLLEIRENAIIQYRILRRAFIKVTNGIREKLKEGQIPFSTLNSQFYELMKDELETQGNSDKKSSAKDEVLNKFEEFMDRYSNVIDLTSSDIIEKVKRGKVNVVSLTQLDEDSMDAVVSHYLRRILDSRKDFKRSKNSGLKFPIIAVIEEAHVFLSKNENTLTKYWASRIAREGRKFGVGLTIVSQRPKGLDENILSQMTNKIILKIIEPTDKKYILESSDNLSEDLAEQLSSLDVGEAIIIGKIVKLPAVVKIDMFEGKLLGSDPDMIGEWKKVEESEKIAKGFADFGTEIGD

[3] = target: T1, SSB; experiment: EMSA; 2.5 pmol NurA/HerA, 1.5 pmol SSB, increasing ATP: no effect of ATP on stimulation; EMSA: 5 pmol fluorescent DNA in 10 ul, 20 mM HEPES/NaOH pH 7.5, 35 mM beta-mercaptoethanol, 500 mM NaCl, 50 mM MgCl2 (so in the source), 10 min room temperature, 5% PAGE in 0.5x TBE; settings: protein: recombinant; chain copies: 2; single strand
[4] = target: T3, NurA (Saccharolobus solfataricus, UniProt Q97WH1 1-339); experiment: EMSA; with SSB: NurA binding not significantly influenced; EMSA: 5 pmol fluorescent DNA in 10 ul, 20 mM HEPES/NaOH pH 7.5, 35 mM beta-mercaptoethanol, 500 mM NaCl, 50 mM MgCl2 (so in the source), 10 min room temperature, 5% PAGE in 0.5x TBE; settings: protein: recombinant; chain copies: 2; single strand
T3 sequence: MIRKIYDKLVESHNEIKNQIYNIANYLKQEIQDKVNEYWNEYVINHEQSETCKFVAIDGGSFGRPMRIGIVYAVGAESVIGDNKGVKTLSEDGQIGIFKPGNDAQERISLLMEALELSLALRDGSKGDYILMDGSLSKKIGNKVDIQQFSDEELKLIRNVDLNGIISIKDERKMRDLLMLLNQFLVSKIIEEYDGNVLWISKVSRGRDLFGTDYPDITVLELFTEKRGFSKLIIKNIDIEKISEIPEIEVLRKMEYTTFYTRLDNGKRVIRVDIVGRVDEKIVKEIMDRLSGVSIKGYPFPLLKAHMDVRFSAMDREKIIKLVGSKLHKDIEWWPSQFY

[5] = target: T2, HerA; experiment: EMSA; HerA alone, increasing amounts; EMSA: 5 pmol fluorescent DNA in 10 ul, 20 mM HEPES/NaOH pH 7.5, 35 mM beta-mercaptoethanol, 500 mM NaCl, 50 mM MgCl2 (so in the source), 10 min room temperature, 5% PAGE in 0.5x TBE; settings: protein: recombinant; chain copies: 6; single strand

B1: 70 leadCy5 (70 mer) (ssDNA)
DNA: CGTGACTTGATGTTAACCCTAACCCTAAGAATTCGGCTTAAGTGAGTGTGAGGATATCATGTACGATAGC
B1: binds ([1]; chain copies: 2, single strand).

B2: Forked substrate (70 lagFork/70 leadCy5) (dsDNA)
DNA 1: TTTTTTTTTTTTTTTTTTTTCACACTCACTTAAGCCGAATTCTTAGGGTTAGGGTTAACATCAAGTCACG
DNA 2: CGTGACTTGATGTTAACCCTAACCCTAAGAATTCGGCTTAAGTGAGTGTGAGGATATCATGTACGATAGC
B2: binds ([1]; fork 1:2, 50 bp duplex, unpaired 5' T20 of strand 1 and 3' 20 nt of strand 2); binds [2].

GCCGTGATCACCAATGCAGATTGACGAACCTTTGCCCACGT (ssDNA) [40 merCy3]: binds ([1]; chain copies: 2, single strand).

GCTATCGTACATGATATCCTC (ssDNA) [21 merTAMRA]: binds ([1]; chain copies: 2, single strand).

GTTTTCCCAGTCACGAC (ssDNA) [17 merTAMRA]: binds [3]; binds [4]; binds [5].
